Source: article PMC11786912 (Computational and Structural Biotechnology Journal, 2025)
Numbering of substitutions follows the chain as printed. Ends that are not written are not given here. * marks the point of attachment. Biotin = O=C1N[C@H]2[C@H](CS[C@H]2CCCCC(=O)*)N1; Ahx = NCCCCCC(=O)O

T1: biotinylated CD99 peptide target epitope (Biotin-Ahx-AVVDGENDDPRPPNP) (Homo sapiens (synthetic peptide))
T1 chain: {Biotin-Ahx}-AVVDGENDDPRPPNP

B1: HuScFvMT99/3^BP (His6X) (scFv, V domains shown)
VH: QVQLQESGPGLVKPSETLSLTCTVSGGSIKDTYIHWVRQPPGKGLEWIGRIDPGNGNIKYDPKFQGRATISADTSKNQVSLNLDSVTAADTAIYYCARSGGYDFDYWGQGTLVTVSS
VL: VLMTQSPSSLSASVGDRVTITCRSSQSLVHSNGNTYLHWYQQKPGQSPKLLIYTVSNRFSGVPDRFSGSGSGTDFTLTISSLQAEDVAVYYCSQSTYVPYTFGPGTKVDIK
B2: HuScFvMT99/3^WT (His6X) (scFv, V domains shown)
VH: B1 VH with V24L, G27F, S28N, T87S, Q109K, T111S, L112T
VL: B1 VL with L2Q, Q46K, S47A, D64S, L77F, A84P, V87I, V89T, Y91F
B3: HuScFvMT99/3^HY (His6X) (scFv, V domains shown)
VH: B1 VH
VL: B1 VL with L2Q, Q46K, S47A, D64S, L77F, A84P, V87I, V89T, Y91F

Legend:
[1] = target: T1, biotinylated CD99 peptide target …; assay: BLI
[2] = target: CD99 on the surface of Jurkat T cells (Homo sapiens (Jurkat, endogenous), UniProt P14209); assay: flow cytometry on cells
Sequence of CD99 on the surface of Jurkat T cells (P14209 23-185): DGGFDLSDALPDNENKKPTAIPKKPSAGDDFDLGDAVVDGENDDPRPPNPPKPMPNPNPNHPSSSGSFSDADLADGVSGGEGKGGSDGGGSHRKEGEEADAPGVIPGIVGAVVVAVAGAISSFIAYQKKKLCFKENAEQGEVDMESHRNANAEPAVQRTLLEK

Binder	Kd [1]	binding result [2]
B1	264 nM	binds
B2	135 nM	–
B3	395 nM	binds
